This note sets out measurements from patent US20090298765A1 (Takeda / Millennium, published 2009).

Where two headings read alike, the source gives them in different places. Non-standard residues stand in square brackets, D forms with d. No end group written: not given here. Phe(3-Cl) = N[C@@H](Cc1cccc(Cl)c1)C(=O)O; Phe(4-Cl) = N[C@@H](Cc1ccc(Cl)cc1)C(=O)O; Phe(4-NH2) = Nc1ccc(C[C@H](N)C(=O)O)cc1; Phe(2-Cl) = N[C@@H](Cc1ccccc1Cl)C(=O)O; Arg(Me) = CNC(=N)NCCC[C@H](N)C(=O)O; Arg(n-Pr) = n-propylated arginine; Orn = NCCC[C@H](N)C(=O)O; azaGly = NNC(=O)O

The target in experiment [1] is T1, human OT7T175 (metastin receptor) (human, UniProt Q969F8 1-398).
T1 construct: expressed on CHO cells; also called hOT7T175; hOT7T175-expressed CHO cells
Kind of experiment: competition with Cy-5 metastin (40-54) on hOT7T175-CHO cells, FMAT.

Experiment [2] concerns the target T1, human OT7T175 (metastin receptor). The experiment can be described thus: cell-based or functional assay.
The target is the same in experiment [3]. Kind of experiment: cell-based or functional assay. This is another data set of the same source.
For experiment [4] the target is unchanged. Kind of experiment: cell-based or functional assay. This is another data set of the same source.

T1 sequence (Q969F8 whole entry L364H): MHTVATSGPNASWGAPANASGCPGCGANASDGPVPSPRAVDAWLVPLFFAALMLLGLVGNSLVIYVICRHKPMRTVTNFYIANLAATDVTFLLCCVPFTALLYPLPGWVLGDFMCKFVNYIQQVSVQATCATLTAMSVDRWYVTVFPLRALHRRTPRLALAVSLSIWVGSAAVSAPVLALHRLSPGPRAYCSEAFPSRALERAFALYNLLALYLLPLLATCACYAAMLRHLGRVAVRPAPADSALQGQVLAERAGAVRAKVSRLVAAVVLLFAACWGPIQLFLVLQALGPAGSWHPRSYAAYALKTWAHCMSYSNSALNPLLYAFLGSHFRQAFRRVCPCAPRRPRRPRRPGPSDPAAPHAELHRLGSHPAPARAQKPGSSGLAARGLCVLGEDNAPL

B1: [Orn9]MS10 (peptide)
peptide: YNWNSFGL[Orn]F-NH2
modifications: N-terminus assumed
SMILES: CC(C)C[C@H](NC(=O)CNC(=O)[C@H](Cc1ccccc1)NC(=O)[C@H](CO)NC(=O)[C@H](CC(N)=O)NC(=O)[C@H](Cc1c[nH]c2ccccc12)NC(=O)[C@H](CC(N)=O)NC(=O)[C@@H](N)Cc1ccc(O)cc1)C(=O)N[C@@H](CCCN)C(=O)N[C@@H](Cc1ccccc1)C(N)=O
notes: also called Compound No. 314
By IC50 is commonly meant the concentration at which inhibition is half-maximal. Lower therefore signals inhibition by little substance. In turn, B1 gave an IC50 in experiment [1] of 470 nM. For the same molecule, the “Ca ion level-increasing activity (FLIPR)” value in experiment [2] was 1 x Metastin (1-54). For the same molecule, the “Ca ion level-increasing activity (FLIPR, 40 s)” value in experiment [3] amounted to 4.4 EC50/MS10 EC50.

B2: des(1)-[D-Asn2,Arg(Me)9]MS10 (peptide)
peptide: [dN]WNSFGL[Arg(Me)]F-NH2
modifications: N-terminus assumed
SMILES: CNC(=N)NCCC[C@H](NC(=O)[C@H](CC(C)C)NC(=O)CNC(=O)[C@H](Cc1ccccc1)NC(=O)[C@H](CO)NC(=O)[C@H](CC(N)=O)NC(=O)[C@H](Cc1c[nH]c2ccccc12)NC(=O)[C@H](N)CC(N)=O)C(=O)N[C@@H](Cc1ccccc1)C(N)=O
notes: also called Compound No. 216
Consider B2, for which the IC50 in experiment [1] is 700 nM. In experiment [4], the “Ca ion level-increasing activity (FLIPR)” value was 1 x Metastin (1-54).

B3: des(1)-[D-Asn2,D-Trp3,Arg(Me)9]MS10 (peptide)
peptide: [dN][dW]NSFGL[Arg(Me)]F-NH2
modifications: N-terminus assumed
SMILES: CNC(=N)NCCC[C@H](NC(=O)[C@H](CC(C)C)NC(=O)CNC(=O)[C@H](Cc1ccccc1)NC(=O)[C@H](CO)NC(=O)[C@H](CC(N)=O)NC(=O)[C@@H](Cc1c[nH]c2ccccc12)NC(=O)[C@H](N)CC(N)=O)C(=O)N[C@@H](Cc1ccccc1)C(N)=O
notes: also called Compound No. 225
For the molecule B3, the IC50 in experiment [1] worked out at 410 nM. In addition, the “Ca ion level-increasing activity (FLIPR)” value in experiment [4] was 1 x Metastin (1-54).

B4: des(1)-[D-Tyr2,Phe3,AzaGly7,Arg(Me)9]MS10 (peptide)
peptide: [dY]FNSF[azaGly]L[Arg(Me)]F-NH2
modifications: N-terminus assumed
SMILES: CNC(=N)NCCC[C@H](NC(=O)[C@H](CC(C)C)NC(=O)NNC(=O)[C@H](Cc1ccccc1)NC(=O)[C@H](CO)NC(=O)[C@H](CC(N)=O)NC(=O)[C@H](Cc1ccccc1)NC(=O)[C@H](N)Cc1ccc(O)cc1)C(=O)N[C@@H](Cc1ccccc1)C(N)=O
notes: also called Compound No. 254
In the case of B4, the IC50 in experiment [1] came to 11 nM. Also, the “Ca ion level-increasing activity (FLIPR)” value in experiment [4] was 1 x Metastin (1-54).

B5: des(1)-[D-Tyr2,Thr3,Arg(Me)9]MS10 (peptide)
peptide: [dY]TNSFGL[Arg(Me)]F-NH2
modifications: N-terminus assumed
SMILES: CNC(=N)NCCC[C@H](NC(=O)[C@H](CC(C)C)NC(=O)CNC(=O)[C@H](Cc1ccccc1)NC(=O)[C@H](CO)NC(=O)[C@H](CC(N)=O)NC(=O)[C@@H](NC(=O)[C@H](N)Cc1ccc(O)cc1)[C@@H](C)O)C(=O)N[C@@H](Cc1ccccc1)C(N)=O
notes: also called Compound No. 227
The molecule B5 came in with an IC50 in experiment [1] of 48 nM. The “Ca ion level-increasing activity (FLIPR)” value in experiment [4] was 1 x Metastin (1-54).

B6: des(1)-[D-Tyr2,Ile3,Arg(Me)9]MS10 (peptide)
peptide: [dY]INSFGL[Arg(Me)]F-NH2
modifications: N-terminus assumed
SMILES: CC[C@H](C)[C@H](NC(=O)[C@H](N)Cc1ccc(O)cc1)C(=O)N[C@@H](CC(N)=O)C(=O)N[C@@H](CO)C(=O)N[C@@H](Cc1ccccc1)C(=O)NCC(=O)N[C@@H](CC(C)C)C(=O)N[C@@H](CCCNC(=N)NC)C(=O)N[C@@H](Cc1ccccc1)C(N)=O
notes: also called Compound No. 228
For the molecule B6, in experiment [1], the IC50 amounted to 40 nM. In experiment [4], the “Ca ion level-increasing activity (FLIPR)” value was 5 x Metastin (1-54).

B7: des(1)-[D-Tyr2,Ser3,Arg(Me)9]MS10 (peptide)
peptide: [dY]SNSFGL[Arg(Me)]F-NH2
modifications: N-terminus assumed
SMILES: CNC(=N)NCCC[C@H](NC(=O)[C@H](CC(C)C)NC(=O)CNC(=O)[C@H](Cc1ccccc1)NC(=O)[C@H](CO)NC(=O)[C@H](CC(N)=O)NC(=O)[C@H](CO)NC(=O)[C@H](N)Cc1ccc(O)cc1)C(=O)N[C@@H](Cc1ccccc1)C(N)=O
notes: also called Compound No. 226
In experiment [1], B7 had an IC50 of 100 nM. Further, in experiment [4], the “Ca ion level-increasing activity (FLIPR)” value was 1 x Metastin (1-54). The like results for [dY][dN]WNSF[azaGly]L[Arg(Me)]F-NH2 (also called Compound No. 237) [[D-Tyr1,D-Asn2,AzaGly7,Arg(Me)9]MS10] were, in that order, 27 nM and 3 x Metastin (1-54). As for [dY]NWNSFGL[Arg(n-Pr)]F-NH2 [[D-Tyr1,Arg(n-Pr)9]MS10], the “Ca ion level-increasing activity (FLIPR)” value in experiment [4] is 0.5 x Metastin (1-54).

B8: [D-Tyr1,Ala3,AzaGly7,Arg(Me)9]MS10 (peptide)
peptide: [dY]NANSF[azaGly]L[Arg(Me)]F-NH2
modifications: N-terminus assumed
SMILES: CNC(=N)NCCC[C@H](NC(=O)[C@H](CC(C)C)NC(=O)NNC(=O)[C@H](Cc1ccccc1)NC(=O)[C@H](CO)NC(=O)[C@H](CC(N)=O)NC(=O)[C@H](C)NC(=O)[C@H](CC(N)=O)NC(=O)[C@H](N)Cc1ccc(O)cc1)C(=O)N[C@@H](Cc1ccccc1)C(N)=O
notes: also called Compound No. 235
B8 gave an IC50 in experiment [1] of 100 nM. In addition, in experiment [4], the “Ca ion level-increasing activity (FLIPR)” value is 1 x Metastin (1-54).

B9: [D-Tyr1,Ile3,AzaGly7,Arg(Me)9]MS10 (peptide)
peptide: [dY]NINSF[azaGly]L[Arg(Me)]F-NH2
modifications: N-terminus assumed
SMILES: CC[C@H](C)[C@H](NC(=O)[C@H](CC(N)=O)NC(=O)[C@H](N)Cc1ccc(O)cc1)C(=O)N[C@@H](CC(N)=O)C(=O)N[C@@H](CO)C(=O)N[C@@H](Cc1ccccc1)C(=O)NNC(=O)N[C@@H](CC(C)C)C(=O)N[C@@H](CCCNC(=N)NC)C(=O)N[C@@H](Cc1ccccc1)C(N)=O
notes: also called Compound No. 233
Regarding B9, the IC50 in experiment [1] was 23 nM. The “Ca ion level-increasing activity (FLIPR)” value in experiment [4] is 1 x Metastin (1-54). As for [dY]N[Phe(3-Cl)]NSF[azaGly]L[Arg(Me)]F-NH2 (also called Compound No. 248) [[D-Tyr1,Phe(3Cl)3,AzaGly7,Arg(Me)9]MS10], the IC50 in experiment [1] amounted to 58 nM. The “Ca ion level-increasing activity (FLIPR)” value in experiment [4] is 2 x Metastin (1-54).

B10: [D-Tyr1,Phe(2Cl)3,AzaGly7,Arg(Me)9]MS10 (peptide)
peptide: [dY]N[Phe(2-Cl)]NSF[azaGly]L[Arg(Me)]F-NH2
modifications: N-terminus assumed
SMILES: CNC(=N)NCCC[C@H](NC(=O)[C@H](CC(C)C)NC(=O)NNC(=O)[C@H](Cc1ccccc1)NC(=O)[C@H](CO)NC(=O)[C@H](CC(N)=O)NC(=O)[C@H](Cc1ccccc1Cl)NC(=O)[C@H](CC(N)=O)NC(=O)[C@H](N)Cc1ccc(O)cc1)C(=O)N[C@@H](Cc1ccccc1)C(N)=O
notes: also called Compound No. 247
In experiment [1], B10 displayed an IC50 of 45 nM. In experiment [4], the “Ca ion level-increasing activity (FLIPR)” value is 1 x Metastin (1-54).

B11: [D-Tyr1,Phe(4Cl)3,AzaGly7,Arg(Me)9]MS10 (peptide)
peptide: [dY]N[Phe(4-Cl)]NSF[azaGly]L[Arg(Me)]F-NH2
modifications: N-terminus assumed
SMILES: CNC(=N)NCCC[C@H](NC(=O)[C@H](CC(C)C)NC(=O)NNC(=O)[C@H](Cc1ccccc1)NC(=O)[C@H](CO)NC(=O)[C@H](CC(N)=O)NC(=O)[C@H](Cc1ccc(Cl)cc1)NC(=O)[C@H](CC(N)=O)NC(=O)[C@H](N)Cc1ccc(O)cc1)C(=O)N[C@@H](Cc1ccccc1)C(N)=O
notes: also called Compound No. 249
For B11, the IC50 in experiment [1] came to 150 nM. For the same molecule, in experiment [4], the “Ca ion level-increasing activity (FLIPR)” value is 1 x Metastin (1-54).

B12: [D-Tyr1,Ala7,Arg(Me)9]MS10 (peptide)
peptide: [dY]NWNSFAL[Arg(Me)]F-NH2
modifications: N-terminus assumed
SMILES: CNC(=N)NCCC[C@H](NC(=O)[C@H](CC(C)C)NC(=O)[C@H](C)NC(=O)[C@H](Cc1ccccc1)NC(=O)[C@H](CO)NC(=O)[C@H](CC(N)=O)NC(=O)[C@H](Cc1c[nH]c2ccccc12)NC(=O)[C@H](CC(N)=O)NC(=O)[C@H](N)Cc1ccc(O)cc1)C(=O)N[C@@H](Cc1ccccc1)C(N)=O
notes: also called Compound No. 204
In turn, B12 gave a half-inhibitory concentration (IC50) in experiment [1] of 680 nM. Further, in experiment [4], the “Ca ion level-increasing activity (FLIPR)” value is 5 x Metastin (1-54). The like results for [dY]QWNSFGL[Arg(Me)]F-NH2 (also called Compound No. 214) [[D-Tyr1,Gln2,Arg(Me)9]MS10] were, in that order, 390 nM and 10 x Metastin (1-54). The like results for [dY]NFNSF[azaGly]L[Arg(Me)]F-NH2 (also called Compound No. 244) [[D-Tyr1,Phe3,AzaGly7,Arg(Me)9]MS10] were, in that order, 77 nM and 1 x Metastin (1-54).

B13: [D-Tyr1,Phe(4NH2)3,AzaGly7,Arg(Me)9]MS10 (peptide)
peptide: [dY]N[Phe(4-NH2)]NSF[azaGly]L[Arg(Me)]F-NH2
modifications: N-terminus assumed
SMILES: CNC(=N)NCCC[C@H](NC(=O)[C@H](CC(C)C)NC(=O)NNC(=O)[C@H](Cc1ccccc1)NC(=O)[C@H](CO)NC(=O)[C@H](CC(N)=O)NC(=O)[C@H](Cc1ccc(N)cc1)NC(=O)[C@H](CC(N)=O)NC(=O)[C@H](N)Cc1ccc(O)cc1)C(=O)N[C@@H](Cc1ccccc1)C(N)=O
notes: also called Compound No. 250
In the case of B13, the IC50 in experiment [1] was 3.7 nM. In addition, in experiment [4], the “Ca ion level-increasing activity (FLIPR)” value is 1 x Metastin (1-54).

B14: [D-Tyr1,Gln4,Arg(Me)9]MS10 (peptide)
peptide: [dY]NWQSFGL[Arg(Me)]F-NH2
modifications: N-terminus assumed
SMILES: CNC(=N)NCCC[C@H](NC(=O)[C@H](CC(C)C)NC(=O)CNC(=O)[C@H](Cc1ccccc1)NC(=O)[C@H](CO)NC(=O)[C@H](CCC(N)=O)NC(=O)[C@H](Cc1c[nH]c2ccccc12)NC(=O)[C@H](CC(N)=O)NC(=O)[C@H](N)Cc1ccc(O)cc1)C(=O)N[C@@H](Cc1ccccc1)C(N)=O
B14: the “Ca ion level-increasing activity (FLIPR)” value in experiment [4] was 0.5 x Metastin (1-54).

B15: [D-Tyr1,Ser4,Arg(Me)9]MS10 (peptide)
peptide: [dY]NWSSFGL[Arg(Me)]F-NH2
modifications: N-terminus assumed
SMILES: CNC(=N)NCCC[C@H](NC(=O)[C@H](CC(C)C)NC(=O)CNC(=O)[C@H](Cc1ccccc1)NC(=O)[C@H](CO)NC(=O)[C@H](CO)NC(=O)[C@H](Cc1c[nH]c2ccccc12)NC(=O)[C@H](CC(N)=O)NC(=O)[C@H](N)Cc1ccc(O)cc1)C(=O)N[C@@H](Cc1ccccc1)C(N)=O
Take B15: the “Ca ion level-increasing activity (FLIPR)” value in experiment [4] was 0.5 x Metastin (1-54).
